Source: patent US20180312877A1, “METHOD FOR ISOMERIZING DOUBLE BONDS” (Research Foundation of the City University of New York, priority 2015, published 2018)

Experiment: Z-ISO in vitro enzyme assay with substrate-containing liposomes
Format: biochemical, Zea mays
Experimental: Z-ISO in vitro enzyme assay. Preparation of substrate-containing liposomes. To produce the substrate, 9,15,9′-tri-cis-ζ-carotene (tri) from E. coli BL21(DE3) cultures, 400 ml of Luria-Bertani medium (I % tryptone, 0.5% yeast extract and 1% NaCl) containing chloramphenicol (34 μg per ml (Sigma-Aldrich)) was inoculated with 8 ml of overnight culture containing pACCRT-EBP (no. 150). Cultures were grown in the dark at 37° C., with shaking at 160 r.p.m. for 8 h before induction with 10 mM IPTG. Cultures were further incubated at 28° C., with shaking at 100 r.p.m. for 40 h and for an additional 2 d without shaking. Cells were centrifuged at 2,600 g, and pellets were resuspended in a total of 40 ml of methanol, distributed in four conical tubes with equal volumes of extract and then sonicated twice on ice (30 s each, at 60% power) with a Vibra Cell VC600 sonicator equipped with a tapered 3-mm microtip (Sonics & Materials). Extracts were centrifuged at 2,600 g for 10 min, and supernatants were transferred to 15-ml conical tubes and evaporated under nitrogen gas in the dark. Dried samples were resolubilized in 300 μl of methanol, transferred to 1.5-ml microfuge tubes, frozen at −80° C. for 1 h and centrifuged at 16,000 g at 4° C. Extractions were then combined, and 1 ml was used to prepare liposomes. Cells also accumulate […] (di), and therefore enzymatic conversion is measured as the ratio of di to tri isomers. For preparation of liposomes, 1 ml of substrate extract (58 μM, estimated by spectroscopy, with the molar extinction coefficient for ζ-carotene, ε400, equal to 138,000) was mixed with 35 μl of soybean L-α-phosphatidylcholine (Sigma-Aldrich, 99% pure) (20 mg per ml in methanol). The mixture was dried under N2, and this was followed by addition of 800 μl sonication buffer (25 mM HEPES, pH 7.8, 100 mM NaCl and 10% glycerol) and sonication on ice with a Vibra Cell VC600 sonicator equipped with a 3-mm tapered microtip (Sonics & Materials) for 1 min, at intervals of 10 s at 20% power.
In vitro reactions. […]

B1: Z-ISO: 15-cis-ζ-carotene isomerase from Zea mays (SEQ ID NO: 12), heme b enzyme, purified as TEV-cleavable MBP fusion (protein)
chain: MASQLRLHLAATPPLLPHRRPHLPRPLCPTLNPIRAPLPPLSRVLSHARPARAVGGGIEPKEGVVAEGDESGGGPVLVGEDSAAFELKDQSVASWAYFAGILGAVLVALNVLWIDPSTGVGTKFLDAVASVSDSHEVVMLLLTIIFAVVHSGMASLRESGEKIVGERVYRVLFAGISLPLAVTTIVYFINHRYDGTQLWQVQGITGIHELLWFSSFISFFFLYPSTFNLLEVAAVDKPKLHMWETGIMRITRHPQMVGQVIWCLAHTLWIGNSVAVAASVGLISHHLFGAWNGDRRLLSRYGEAFEVLKKRTSVMPFAAIIDGRQKLPKDYHKEFFRLPYVAITMLTLGAYFAHPLMQASSYQLPW
modifications: MBP fusion, TEV-cleavable; Zea mays
conversion of substrate to product (Z-ISO pretreated with dithionite, 10 mM final (reducing conditions)): Conversion of the substrate to product occurred
conversion of substrate to product (as-purified enzyme (considered to be oxidized)): not functional
conversion of substrate to product (heat-denatured Z-ISO): not functional
